Assay: soluble on expression in E. coli; label from the status in PepcDB or PDB records

Sequence | soluble on expression in E. coli
GPGSMACLSRIDANLLQYYEKPEPNNTVDLYVSNNSNNNGLKEGDKSISTPVPQPYGSEYSNCLLLSNSEYICYHFSSRSTLLTFYPLSDAYHGKTINIHLPNASMNQRYTLTIQEVEQQLLVNVILKDGSFLTLQLPLSFLFSSANTLNGEWFHLQNPYDFTVRVPHFLFYVSPQFSVVFLEDGGLLGLKKVDGVHYEPLLFNDNSYLKSLTRFFSRSSKSDYDSVISCKLFHERYLIVLTQNCHLKIWDLTSFTLIQDYDMVSQSDSDPSHFRKVEAVGEYLSLYNNTLVTLLPLENGLFQMGTLLVDSSGILTYTFQNNIPTNLSASAIWSIVDLVLTRPLELNVEASYLNLIVLWKSGTASKLQILNVNDESFKNYEWIESVNKSLVDLQSEHDLDIVTKTGDVERGFCNLKSRYGTQIFERAQQILSENKIIMAHNEDEEYLANLETILRDVKTAFNEASSITLYGDEIILVNCFQPYNHSLYKLNTTVENWFYNMHSETDGSELFKYLRTLNGFASTLSNDVLRSISKKFLDIITGELPDSMTTVEKFTDIFKNCLENQFEITNLKILFDELNSFDIPVVLNDLINNQMKPGIFWKKDFISAIKFDGFTSIISLESLHQLLSIHYRITLQVLLTFVLFDLDTEIFGQHISTLLDLHYKQFLLLNLYRQDKCLLAEVLLKDSSEFSFGVKFFNYGQLIAYIDSLNSNVYNASITENSFFMTFFRSYIIENTSHKNIRFFLENVECPFYLRHNEVQE | soluble
DDIKVAVVGAMSGPIAQWGDMEFNGARQAIKDINAKGGIKGDKLVGVEYDDACDPKQAVAVANKIVNDGIKYVIGHLCSSSTQPASDIYEDEGILMISPGATNPELTQRGYQHIMRTAGLDSSQGPTAAKYILETVKPQRIAIIHDKQQYGEGLARSVQDGLKAANANVVFFDGITAGEKDFSALIARLKKENIDFVYYGGYYPEMGQMLRQARSVGLKTQFMGPEGVGNASLSNIAGDAAEGMLVTMPKRYDQDPANQGIVDALKADKKDPSGPYVWITYAAVQSLATALERTGSDEPLALVKDLKANGANTVIGPLNWDEKGDLKGFDFGVFQWHADGSSTKAK | soluble
MGSDKIHHHHHHMASKATSIDIAYRAGVSQSTVSRALRNSPLVNLETRQRIQAIAKELNYKVDKNASNLRMQNSHTLALLICEDPTNDESMINPFFLSMLGSITRATARQGYDLLVSFQQLSTDWHADYEDSNKADGIILLGYGDYMDYAHKLDKLIEKNTHFVIWGAEHNNKAVLSIGCDNHQGGFVATEHLLGLGHKHIAFLGDSSSRSPEFRDRYLGHVDALQSTGIEADTQLQHDAINTEASGYHAANVLLDSGVTFDAIFTASDLIAIGAIRALKKRGVLVPEQVAVVGYDDIPVASFANPALTTIKQDTQFAGEILVESVLKLIRGQEVSQRLIKTHLVVRSSCGANVEDN | not soluble
DVQINIRNNVYIPPCTINNGQNIVVDFGNINPEHVDNSRGEVTKTISISCPYKSGSLWIKVTGNTMGGGQNNVLATNITHFGIALYQGKGMSTPLTLGNGSGNGYRVTAGLDTARSTFTFTSVPFRNGSGILNGGDFRTTASMSMIYN | soluble
MSLCELSYLNAVVMLKAQRGGNSGLYFGSMTTFITSGGLEISPAGAHIVHAESPEGELLFVSSASQYGEGNAIRGGVPIIAPWFGGLLGLDPAHGWAKRSAWDVTEHDGQIHAEYGRDGLLLDIRANSTKNGFEITLRAYNDTDEARTVQLAFHPYFKVDDVEKIEVRGLDGVDILNRLNNEVETQDGPVTFDGEFDRIALGTPVVRIFDTDRIITIEGDGHDSTVVWNPGESRASTVADIGEGEWRDFVCVEPALLGADQKGVRVAPGQSVTVGMQVSVEKRAEGHHHHHH | soluble
MGSDKIHHHHHHMLDENFEALRREATAWIVRITSGTATTEDAEALLRWRSRSDAHEQAFQQSARLWKNLGSALGETRKTSASTVTRRSFIAAGSVAAGAAGVGVVLSELGFLPSVDAMLADYATGVGEQRTVELVDGSTAILDGGTTLSLDYSPSSRHLVLTSGAAVFDVVHDAARPFVVTAANGDTTATGTSFSVKHGEEDVSIECLEGHITVQCLGDSQLNGGEGISYSRAGLGKKVAADIETAAAWRRGLLIFEDRPLADVVSDLNRHRRGRVVIASSDLRSRRMSGVFHLNRPDEILAHLEETLQVRPVSLVGGIVLLR | not soluble
MEIDKEILKRCKKYDRASFSQLFHLYEKYLYNLCYGYTQNTSDAMDLVQEIYIKVFKNIKNFDENLPFHPWVRKISVNTCLNFKRDNRGNVMSLNSKYYDSEFEEEDRLAEDYNMEQEVVNRINNEVVKESIKKLTYDYRMVIMLRYYEDLSYDEIASVLDMPIGTVKTKIYRAKNVLKKSLEKKLEVKK | not soluble
LSGMTGNQSPAALMSSNIDLLDAITPNVRDALTALFANIACYVLGSIWFRAGVAERIQASAFVSPGKLKNNASKKSGPISQQDLLILASRFVSPTRAYESFSRFSTEAVKSDSWHKAATPELIAHTERLLAGVLGASSASLVMDSVLQGRDLALDEVFSLVDEASSKIMLSQDMLRGAIEHAYEGMSVIDSDLNLVAWNYKYVELYQYPEGFLQQGMPISEVI | not soluble
SNRHLCKECFKKDIERRAKKVLGKDIIRNNVKIGIGISGGKDSLVMAYILKELFKHIPNAKLICFFVDEGIKGFRNIAEKYVKEFCKEYNLDLKIIKFEDEIGYTLDEIVKNDYLSKLNIGKPCSFCGVVRRYLLNKHALKEGCDYLAIGHNLDDFCQTILMNYVEGNIKNIIQFGKEFEGGGFVKRIKPLKLIPEEEVKLYAEINNIKYQREPC | not soluble
MSLADRLTIGEFSRITHLSIRMLRRYHEQDLLVPAEVDPDTGYRYYSPAQIRPALTVRRFRDLDLPLADLRRFLAAESADGPDDGTAQQVVAAHLRRLEDRLGRTQRAVEVLRELLDPEAEREGHHHHHH | not soluble
MGKKYKNIVLLKGLEVINDYHFRMVKSLLSNDLKLNLKMREEYDKIQIADLMEEKFRGDAGLGKLIKIFEDIPTLEDLAETLKKEKLKVKGPALSRKRKKEVDATSPAPSTSSTVKTEGAEATPGAQKRKKSTKEKAGPKGSKVSEEQTQPPSPAGAGMSTAMGRSPSPKTSLSAPPNTSSTENPKTVAKCQVTPRRNVLQKRPVIVKVLSTTKPFEYETPEMEKKIMFHATVATQTQFFHVKVLNTSLKEKFNGKKIIIISDYLEYDSLLEVNEESTVSEAGPNQTFEVPNKIINRAKETLKIDILHKQASGNIVYGVFMLHKKTVNQKTTIYEIQDDRGKMDVVGTGQCHNIPCEEGDKLQLFCFRLRKKNQMSKLISEMHSFIQIKKKTNPRNNDPKSMKLPQEQSQLPNPSEASTTFPESHLRTPQMPPTTPSSSFFTKKSEDTISKMNDFMRMQILKEGSHFPGPFMTSIGPAESHPHTPQMPPSTPSSSFLTTLKPRLKTEPEEVSIEDSAQSDLKEVMVLNATESFVYEPKEQKKMFHATVATENEVFRVKVFNIDLKEKFTPKKIIAIANYVCRNGFLEVYPFTLVADVNADRNMEIPKGLIRSASVTPKINQLCSQTKGSFVNGVFEVHKKNVRGEFTYYEIQDNTGKMEVVVHGRLTTINCEEGDKLKLTCFELAPKSGNTGELRSVIHSHIKVIKTRKNKKDILNPDSSMETSPDFFF | soluble
MQTLLLALFSLAMVQAMRDQSIAVKGRLICGDKPAANVRIKLWEEDSGPDPDDLLEAGYTDSNGEFQLSGGEAELTPIDPIFKVYHDCDDKYIPGHRKVKFLIPKSYITQGKTPKKTFDLGVLNLETIFPKEERELIVSRKRRHHPKQYINEEDSF | not soluble
GAADMPFRWSFMADGKSLIAAQPDDARVIADTEALAGWYGGMTSLAPKQIKLFADGAIYSQLMQVRDPFLDGHKGEWMMDLDQFQRAFRVYWDAGYQLHVHVNGDAGLDRVLDTLETNLRRTPRDDHRTTIVHFAVSGADQVLRIRDLGAIVSANPYYVAALADNYGEVGLGPDRADNMVRLGDVEAAGISWSLHSDMPMAPCDPLFLMWCAVNRVTSSGRVAGPAQRVSAETALRGVTINAAYSLKLEHEIGSIEPGKRANLTILGDNPLTVDPEKIRDIAVIGTVMEGRDFP | not soluble
MGSDKIHHHHHHMGKSKRKILNWKQYNQALVNRGSVTFWLDKSAINAWHCKAHHGGRGRGFQFSDTAIETALMLKGVFKLSLRATEGFINSLFRLMDVPLAAPDYTCISKRAKTVEVKYRNPCRGPVTHLVVDSTGLKVYGEGEWKTRKHGKERRRTWRKLHLAIDADTHDVVSAEVSLVNVADNEVLPTMLNPLRRKVNQVSADGAYDTKECHKLLRHKGAKPTIPPRSNAGYWEDGHPRNEAVEALKSGTLKQWKDDNDYHQRSLSETAMYRYKQLISSKLSLRDYNAQVGEALAGVKAMNKVIGLGMPVRQTTA | not soluble
MSLTISLGYRALDVGRARAHALIDQLSARESVELLCEAFEVPRSCYYNHRLRRRNPDVERVRLRSRVNELFTQSRSAAGSRSIVLMMHEDGEQIGRFKVRSLMRELGLISKQPGSHAYRKATVERPDIPNILNRAFDVPAPNQVWCGDITYIWAQGKWHYLAVVMDLFARRVVGWALSSKPDTDLVIKALDMAYEQRGKPQGLLFHSDQGAQYGSRQFRQRLWRYRIRQSMSRRGNCWDNAPMERVFRSLKTEWIPTVGYMTAQEAQRDISHYLMHRYNWIRPHQFNNGLAPAQSEKRLNVVSGISEGHHHHHH | not soluble
MTKSRKQKQKKQDFLRKKLKVGKPKEKARNATDTSFVSKTISIRNQHLDQNPHDLTKRLTLLKHHNINVRKETLTTFQKSIPSIIKSRLMTPLLTQSIPLICDESQQVRQGLIDLVDEIGSHDAEILKLHCNIFVLYINMAMTHIVTQIQADSTKFLSHLLKYCGDEVVRKSWVKLLNGVFGVLGWGQVGKNDSASIVQTKKRNAKYVTIHLNALYTLVEYGCQDERARSDGDTAETTEDSGTLRNPYLIPDYPQPFEHLKLFTRELKVQDATSSGVNATLLSLATQDIDTRKAVFIEQFLPIVRKKIEVIIKEGGECGKSANKLKTLLAKIFD | soluble
MANSETSLQARLWKTLSQSPDVRLWRNNVGTCKAADGRFVRFGLCPGSSDLIGLTRVTITPDMVGQTIALFTAIEVKTPTGRVTPEQQSFIDFVQRSGGRAGVARSMQDANKIISGEGHVLEHHHHHH | not soluble
MDARIVNALIGSVYETIRDVLGIEPKTGKPSTVSHIEIPHSLVTVIGITGGIEGSLIYSFSSETALKVVSAMMGGMEYNQLDELALSAIGELGNMTAGKLAMKLEHLGKHVDITPPTVVSGRDLKIKSFGVILKLPISVFSEEDFDLHLSVKSGG | soluble
MGHHHHHHSHMKTLEAHKDPHKEVVRSAEEAASVLATSISPEQCIKVLCPIIQTADYPINLAAIKMQTKVIERVSKETLNLLLPEIMPGLIQGYDNSESSVRKACVFCLVAVHAVIGDELKPHLSQLTGSKMKLLNLYIKRAQTGSGGADPTTDVSGQS | not soluble
MGSDKIHHHHHHMNIKQLHYFLVVAEEKQITAAAKRLYIAQPPLSYQLKQLEKELGAQLFKRTAHGIELTDAGQTLQSYASEILSLAQNAKNQVHKTISGELGTVAMGIVSSSTGYMPIAAFKELTQFYPEINFDIYEDNTFGVLDKLEKKTIDMGIVRTPYNRTGLNAKTLTTEKMMAVTNDITLLHKKELRIEDLKDQPLIIYRRFEEMFNQTFAHHGIKPFYAMKCDDSRTAITWAKQNMGLALVPESIATTYAKNKMIAVKHVNWITHLQLVWRKDQIVTPLMKKIISLVK | not soluble
ITFEIAGDKLLMTLVPERLRGETASFDIEANGKVYVERGRRITARHIKALEKDNISQVVVPSEYILGKVASKDYVDLESGEIICPANGEISLETLAKLAQAG | not soluble

— the DeepSol protein solubility set
